These results are taken from publication doi:10.1101/2024.03.21.586141, “Delving into human α1,4-galactosyltransferase acceptor specificity: the role of enzyme dimerization” (bioRxiv, 2024).

Holding throughout (conditions): partners not purified
The target of assay [1] is T1, human β1,4-galactosyltransferase 1 (B4galt1) (human, UniProt P15291-2 1-385).
T1 construct: human β1,4-galactosyltransferase 1, ORF of GenBank NM_001378495.1 nucleotides 30-1187 (1158 nt: 385 codons and stop); Synthetic ORF (Thermo Fisher) recloned into pBiT1.1-N/C and pBiT2.1-N/C; also called N-Lg-B4galt1; C-Lg-B4galt1; source: HEK293T or CHO-Lec2 cells, transfected (PEI), in live cells; not shown: LgBiT or SmBiT (NanoLuc subunit), N-terminal or C-terminal, kept
T1 sequence (looked up): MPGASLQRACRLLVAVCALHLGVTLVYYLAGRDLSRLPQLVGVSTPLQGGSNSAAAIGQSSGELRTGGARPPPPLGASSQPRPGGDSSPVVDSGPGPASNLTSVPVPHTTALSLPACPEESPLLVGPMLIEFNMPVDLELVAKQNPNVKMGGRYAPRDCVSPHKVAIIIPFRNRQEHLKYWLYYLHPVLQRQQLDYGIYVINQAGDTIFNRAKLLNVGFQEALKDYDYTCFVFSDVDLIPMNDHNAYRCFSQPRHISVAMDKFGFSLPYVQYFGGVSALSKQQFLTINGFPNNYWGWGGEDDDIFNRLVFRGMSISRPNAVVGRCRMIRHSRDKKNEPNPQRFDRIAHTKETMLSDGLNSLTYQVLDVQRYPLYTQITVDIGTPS
Briefly: split reporter (BiFC, NanoBiT); NanoBiT in live HEK293T cells, co-transfected with LgBiT and SmBiT fusions (N- or C-terminal, 25 ng of each plasmid a well), Nano-Glo Live Cell Substrate in Opti-MEM; fold of luminescence over LgBiT fusion with HaloTag-SmBiT, threshold 10-fold.

For assay [2], the target named is T1, human β1,4-galactosyltransferase 1 …. Briefly: split reporter (BiFC, NanoBiT); NanoBiT in live CHO-Lec2 cells, co-transfected with LgBiT and SmBiT fusions (N- or C-terminal, 25 ng of each plasmid a well), Nano-Glo Live Cell Substrate in Opti-MEM; fold of luminescence over LgBiT fusion with HaloTag-SmBiT, threshold 10-fold.
In assay [3] the target is T2, human β1,4-galactosyltransferase 5 isoenzyme (B4galt5) (human, UniProt O43286 1-388).
T2 construct: human β1,4-galactosyltransferase 5, ORF of GenBank NM_004776.4 nucleotides 189-1355 (388 codons and stop); Synthetic ORF (Thermo Fisher) recloned into pBiT1.1-N/C and pBiT2.1-N/C; also called N-Lg-B4galt5; C-Lg-B4galt5; source: HEK293T or CHO-Lec2 cells, transfected (PEI), in live cells; not shown: LgBiT or SmBiT (NanoLuc subunit), N-terminal or C-terminal, kept
T2 sequence (looked up): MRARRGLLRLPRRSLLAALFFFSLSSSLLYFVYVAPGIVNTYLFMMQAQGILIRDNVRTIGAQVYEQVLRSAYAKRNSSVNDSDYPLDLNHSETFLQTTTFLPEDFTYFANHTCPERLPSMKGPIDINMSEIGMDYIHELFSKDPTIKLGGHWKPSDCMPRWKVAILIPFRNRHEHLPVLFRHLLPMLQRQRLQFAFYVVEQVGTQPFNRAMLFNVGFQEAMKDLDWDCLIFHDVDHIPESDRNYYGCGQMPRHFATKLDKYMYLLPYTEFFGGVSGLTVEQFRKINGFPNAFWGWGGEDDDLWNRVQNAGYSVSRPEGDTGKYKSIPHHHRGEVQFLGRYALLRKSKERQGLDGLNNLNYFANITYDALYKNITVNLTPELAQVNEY
Described as above.

B1: human α1,4-galactosyltransferase (A4galt), high-frequency enzyme (p.Q211) (enzyme, UniProt Q9NPC4 1-353, looked up)
chain: MSKPPDLLLRLLRGAPRQRVCTLFIIGFKFTFFVSIMIYWHVVGEPKEKGQLYNLPAEIPCPTLTPPTPPSHGPTPGNIFFLETSDRTNPNFLFMCSVESAARTHPESHVLVLMKGLPGGNASLPRHLGISLLSCFPNVQMLPLDLRELFRDTPLADWYAAVQGRWEPYLLPVLSDASRIALMWKFGGIYLDTDFIVLKNLRNLTNVLGTQSRYVLNGAFLAFERRHEFMALCMRDFVDHYNGWIWGHQGPQLLTRVFKKWCSIRSLAESRACRGVTTLPPEAFYPIPWQDWKKYFEDINPEELPRLLSATYAVHVWNKKSQGTRFEATSRALLAQLHARYCPTTHEAMKMYL
notes: human α1,4-galactosyltransferase, high-frequency variant with Q at position 211; full-length A4GALT gene from pCAG-A4GALT, GenBank NM_001318038.3 nucleotides 325-1386 (353 codons and stop); Four fusions were made (LgBiT or SmBiT at the N- or C-terminus, vectors pBiT1.1-N/C and pBiT2.1-N/C); every protein stood as LgBiT and as SmBiT fusion; also called Gb3/CD77 synthase; P1/Pk synthase; source: …
As to B1, the results for the “fold of luminescence over the negative control” value in assay [1], in assay [2] and in assay [3] were ~60 times, 90 times and 300 times, respectively.

B2: human α1,4-galactosyltransferase (A4galt), mutein with p.Q211E substitution (enzyme, UniProt Q9NPC4 1-353, looked up)
chain: MSKPPDLLLRLLRGAPRQRVCTLFIIGFKFTFFVSIMIYWHVVGEPKEKGQLYNLPAEIPCPTLTPPTPPSHGPTPGNIFFLETSDRTNPNFLFMCSVESAARTHPESHVLVLMKGLPGGNASLPRHLGISLLSCFPNVQMLPLDLRELFRDTPLADWYAAVQGRWEPYLLPVLSDASRIALMWKFGGIYLDTDFIVLKNLRNLTNVLGTESRYVLNGAFLAFERRHEFMALCMRDFVDHYNGWIWGHQGPQLLTRVFKKWCSIRSLAESRACRGVTTLPPEAFYPIPWQDWKKYFEDINPEELPRLLSATYAVHVWNKKSQGTRFEATSRALLAQLHARYCPTTHEAMKMYL
notes: human α1,4-galactosyltransferase, rare natural variant p.Q211E (c.631C>G, rs397514502); full-length A4GALT gene from pCAG-A4GALT, GenBank NM_001318038.3 nucleotides 325-1386; Four fusions were made (LgBiT or SmBiT at the N- or C-terminus); also called mutein human A4galt; rare enzyme variant; source: HEK293T or CHO-Lec2 cells, transfected (PEI), in live cells; not shown: LgBiT or SmBiT (NanoLuc …)
On to B2, for which the “fold of luminescence over the negative control” value was ~30 times in assay [1], 360 times in assay [2] and ~1000 times in assay [3].
